Where two headings read alike, the source gives them in different places.
What was measured:
[1] = target: recombinant soluble 1957 H2 HA (A/Japan/305+/1957) (Influenza A virus A/Japan/305+/1957 (H2N2)); test: ELISA, supernate; also: test concentration or dose not given here
[2] = target: recombinant soluble trimeric 2009 H1 HA (A/California/04/2009, wild type) (Influenza A virus A/California/04/2009 (H1N1)); test: ELISA, supernate; also: test concentration or dose not given here
[3] = target: soluble 1999 H1 HA (seasonal 1999 H1N1) (Influenza A virus (H1N1, 1999)); test: ELISA, supernate; also: test concentration or dose not given here
[4] = target: soluble 2004 H5 HA (Influenza A virus (H5N1, 2004)); test: ELISA, supernate; also: test concentration or dose not given here
[5] = target: 1997 H6N1 HA (Influenza A virus (H6N1, 1997)); test: ELISA, supernate
[6] = target: 1997 H9N2 HA (Influenza A virus (H9N2, 1997)); test: ELISA, supernate
[7] = target: recombinant soluble 1957 H2 HA (A/Japan/305+/1957) (Influenza A virus A/Japan/305+/1957 (H2N2)); test: ELISA, supernate; remark: listed apart in the source; also: test concentration or dose not given here
[8] = target: recombinant soluble trimeric 2009 H1 HA (A/California/04/2009, wild type) (Influenza A virus A/California/04/2009 (H1N1)); test: ELISA, supernate; remark: listed apart in the source; also: test concentration or dose not given here
[9] = target: soluble 1999 H1 HA (seasonal 1999 H1N1) (Influenza A virus (H1N1, 1999)); test: ELISA, supernate; remark: listed apart in the source; also: test concentration or dose not given here
[10] = target: soluble 2004 H5 HA (Influenza A virus (H5N1, 2004)); test: ELISA, supernate; remark: listed apart in the source; also: test concentration or dose not given here
[11] = target: recombinant soluble 1968 H3 HA (A/Aichi/2/1968) (Influenza A virus A/Aichi/2/1968 (H3N2)) (UniProt P03437); test: ELISA, supernate
[12] = target: recombinant soluble trimeric 1918 H1 HA (A/South Carolina/1/1918, wild type) (Influenza A virus A/South Carolina/1/1918 (H1N1)) (UniProt Q9WFX3); test: ELISA, supernate
[13] = target: recombinant soluble 1968 H3 HA (A/Aichi/2/1968) (Influenza A virus A/Aichi/2/1968 (H3N2)) (UniProt P03437); test: ELISA, supernate; remark: listed apart in the source
[14] = target: recombinant soluble trimeric 1918 H1 HA (A/South Carolina/1/1918, wild type) (Influenza A virus A/South Carolina/1/1918 (H1N1)) (UniProt Q9WFX3); test: ELISA, supernate; remark: listed apart in the source
[15] = target: recombinant soluble 1957 H2 HA (A/Japan/305+/1957) (Influenza A virus A/Japan/305+/1957 (H2N2)); test: ELISA, recombinant mAb
[16] = target: recombinant soluble trimeric 2009 H1 HA (A/California/04/2009, wild type) (Influenza A virus A/California/04/2009 (H1N1)); test: ELISA, recombinant mAb
[17] = target: soluble 1999 H1 HA (seasonal 1999 H1N1) (Influenza A virus (H1N1, 1999)); test: ELISA, recombinant mAb
[18] = target: soluble 2004 H5 HA (Influenza A virus (H5N1, 2004)); test: ELISA, recombinant mAb
[19] = target: 1997 H6N1 HA (Influenza A virus (H6N1, 1997)); test: ELISA, recombinant mAb
[20] = target: 1997 H9N2 HA (Influenza A virus (H9N2, 1997)); test: ELISA, recombinant mAb
[21] = target: recombinant soluble 1957 H2 HA (A/Japan/305+/1957) (Influenza A virus A/Japan/305+/1957 (H2N2)); test: ELISA, recombinant mAb; remark: listed apart in the source
[22] = target: recombinant soluble trimeric 2009 H1 HA (A/California/04/2009, wild type) (Influenza A virus A/California/04/2009 (H1N1)); test: ELISA, recombinant mAb; remark: listed apart in the source
[23] = target: soluble 1999 H1 HA (seasonal 1999 H1N1) (Influenza A virus (H1N1, 1999)); test: ELISA, recombinant mAb; remark: listed apart in the source
[24] = target: soluble 2004 H5 HA (Influenza A virus (H5N1, 2004)); test: ELISA, recombinant mAb; remark: listed apart in the source

Binder | OD [1] | OD [2] | OD [3] | OD [4] | OD [5] | OD [6] | OD [7] | OD [8] | OD [9] | OD [10] | further results
mAb 6J24 (antibody, V domains shown) VH: EVQLVESGGGLVQPGRSLRLSCVGSGFNFDGYAMQWVRQVPGKGLEWVSGISWHSDSTGYADSVRGRFTISRDNAKNSLYLQMDSLRPEDTAFYYCGKSIGHVGGSYRHPIDYWGQGTLVTVS VL: DIQLTQSPSSLSASVGDRVTITCRASQGITDYLAWYQQKPGTIPKLLIYAASTLQSGVPSRFSGGGYGTDFTLTISSLQPEDVATYYCQKYNSAPLTFGGGTKVEIKR | 0.219 OD | 0.981 OD | 0.183 OD | 0.379 OD | 0.163 OD | 0.075 OD | 0.097 OD | 0.102 OD | 0.083 OD | 0.182 OD | 
mAb 5I17 (antibody, V domains shown) VH: EVQLVESGGGVVQPGRSLRLSCAASGFSFSNYAMHWVRQAPGKGLEWVALISFDGSDKYYADSVKGRFTMSRDNSKNTLYLQMNSLRAEDTAVYYCARDEPYCGGDCFAFDVWGQGTMVTVS VL: DIQLTQSPSSLSASAGDRVSMTCRASQIISSSLNWYQQKPGKAPKLLIYAASNLQSGVPSRFSGSGSGTDFTLTISSLQPEDFATYYCQQSYSTPPELTFGGGTKVDIKR | 0.85 OD | 0.668 OD | 1.93 OD | 1.55 OD | 0.11 OD | 1.98 OD | 1.38 OD | 0.566 OD | 1.19 OD | 1.17 OD | OD [11]: 0.267 OD; OD [12]: 0.495 OD; OD [13]: 0.156 OD; OD [14]: 0.522 OD
mAb 3N6 (recombinant) (antibody, V domains shown) VH: QVQLQESGPGLVKPSETLSLTCSVSGGSINYYYWSWIRQPPGKGLECIGYISDTGRTYYNPSLRSRVTISVDTSKNQFSLNLTSMTAADTAVYYCARDPTGSRQKNAFDMWGQGTMVTVS VL: AIQMTQSPSSLSASVGDRVTITCRASQNIRSYLNWYQQKPGKAPNLLIYGTTSLESGVPSRFSGSGSGTDFTLTISSLQPEDFATYYCQQSYHTPQTFGQGTKVEIKR |  |  |  |  |  |  |  |  |  |  | OD [15]: 0.57 OD; OD [16]: 1.03 OD; OD [17]: 0.909 OD; OD [18]: 2.03 OD; OD [19]: 0.23 OD; OD [20]: 0.084 OD; OD [21]: 0.801 OD; OD [22]: 2.69 OD; OD [23]: 1.49 OD; OD [24]: 3.07 OD
